{"source": "paper PMC9886945", "key": {"[1]": {"target": "Mtb RNAP holoenzyme with σ^B in which residues 252-323 (subregion 4.2) are deleted (M. tuberculosis) (UniProt P9WGZ1)", "assay": "SEC"}, "[2]": {"target": "Mtb RNAP holoenzyme with σ^B in which residues 252-323 (subregion 4.2) are deleted (M. tuberculosis) (UniProt P9WGZ1)", "assay": "negative stain EM"}}}
{"substance": "Mtb RNAP holoenzyme with σ^B in which residues 252-323 (subregion 4.2) are deleted, P9WGZ1;P9WGY9;P9WGY7;P9WGY5;P9WGI5", "values": [{"measurement": "stoichiometry N", "setting": "[1]", "value": 8}, {"measurement": "stoichiometry N", "setting": "[2]", "value": 8}]}
